Source: patent US20230365649A1 (published 2023)

T1: KRAS wild type (WT 25-mer) peptide on HLA-DQA1*05:01 / HLA-DQB1*03:01 (human)
T1 peptide: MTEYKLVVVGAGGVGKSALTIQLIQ

T2: KRAS G13D (G13D RAS; the same in KRAS, HRAS and NRAS) peptide on HLA-DQA1*05:01 / HLA-DQB1*03:01 (human)
T2 peptide: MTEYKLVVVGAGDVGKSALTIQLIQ


Tests used:
[1] = target: T1, KRAS wild type (WT 25-mer) peptide on …; assay: activation reporter or marker
[2] = target: T2, KRAS G13D (G13D RAS; the same in KRAS, …); assay: activation reporter or marker
[3] = target: T1, KRAS wild type (WT 25-mer) peptide on …; assay: cytokine release
[4] = target: T2, KRAS G13D (G13D RAS; the same in KRAS, …); assay: cytokine release

Binder | binding result [1] | binding result [2] | binding result [3] | binding result [4]
4400 TCR-N4 (TCR, V domains shown) Valpha: QKITQTQPGMFVQEKEAVTLDCTYDTSDPSYGLFWYKQPSSGEMIFLIYQGSYDQQNATEGRYSLNFQKARKSANLVISASQLGDSAMYFCAMRERSGTASKLTFGTGTRLQVTL Vbeta: DVKVTQSSRYLVKRTGEKVFLECVQDMDHENMFWYRQDPGLGLRLIYFSYDVKMKEKGDIPEGYSVSREKKERFSLILESASTNQTSMYLCASSLGVGSNYGYTFGSGTRLTVV | no recognition | recognises | – | –
4400 TCR-20 (TCR, V domains shown) Valpha: QKITQTQPGMFVQEKEAVTLDCTYDTSDPSYGLFWYKQPSSGEMIFLIYQGSYDQQNATEGRYSLNFQKARKSANLVISASQLGDSAMYFCAMRERSGGSYIPTFGRGTSLIVHP Vbeta: DVKVTQSSRYLVKRTGEKVFLECVQDMDHENMFWYRQDPGLGLRLIYFSYDVKMKEKGDIPEGYSVSREKKERFSLILESASTNQTSMYLCASSLGTFNQPQHFGDGTRLSIL | no recognition | recognises | – | –
4400 TCR-C (TCR, V domains shown) Valpha: QKITQTQPGMFVQEKEAVTLDCTYDTSDPSYGLFWYKQPSSGEMIFLIYQGSYDQQNATEGRYSLNFQKARKSANLVISASQLGDSAMYFCAMRERTGTASKLTFGTGTRLQVTL Vbeta: DVKVTQSSRYLVKRTGEKVFLECVQDMDHENMFWYRQDPGLGLRLIYFSYDVKMKEKGDIPEGYSVSREKKERFSLILESASTNQTSMYLCASSPGTENSPLHFGNGTRLTVT | no recognition | recognises | – | –
4400 TCR-E (TCR, V domains shown) Valpha: DAKTTQPPSMDCAEGRAANLPCNHSTISGNEYVYWYRQIHSQGPQYIIHGLKNNETNEMASLIITEDRKSSTLILPHATLRDTAVYYCIVRVAKSGANNLFFGTGTRLTVIP Vbeta: EADIYQTPRYLVIGTGKKITLECSQTMGHDKMYWYQQDPGMELHLIHYSYGVNSTEKGDLSSESTVSRIRTEHFPLTLESARPSHTSQYLCASSGLTYTDTQYFGPGTRLTVL | – | – | no recognition | recognises
4400 TCR-A1 (TCR, V domains shown) Valpha: QKEVEQDPGPLSVPEGAIVSLNCTYSNSAFQYFMWYRQYSRKGPELLMYTYSSGNKEDGRFTAQVDKSSKYISLFIRDSQPSDSATYLCAMRANTDKLIFGTGTRLQVFP Vbeta: DVKVTQSSRYLVKRTGEKVFLECVQDMDHENMFWYRQDPGLGLRLIYFSYDVKMKEKGDIPEGYSVSREKKERFSLILESASTNQTSMYLCASRLGNTGELFFGEGSRLTVL | – | – | no recognition | recognises
4400 TCR-N13 (TCR, V domains shown) Valpha: QKEVEQDPGPLSVPEGAIVSLNCTYSNSAFQYFMWYRQYSRKGPELLMYTYSSGNKEDGRFTAQVDKSSKYISLFIRDSQPSDSATYLCAMRANTDKLIFGTGTRLQVFP Vbeta: DVKVTQSSRYLVKRTGEKVFLECVQDMDHENMFWYRQDPGLGLRLIYFSYDVKMKEKGDIPEGYSVSREKKERFSLILESASTNQTSMYLCASRVGNTGELFFGEGSRLTVL | no recognition | recognises | – | –
4400 TCR-A2 (TCR, V domains shown) Valpha: QKEVEQDPGPLSVPEGAIVSLNCTYSNSAFQYFMWYRQYSRKGPELLMYTYSSGNKEDGRFTAQVDKSSKYISLFIRDSQPSDSATYLCAMRANTDKLIFGTGTRLQVFP Vbeta: DVKVTQSSRYLVKRTGEKVFLECVQDMDHENMFWYRQDPGLGLRLIYFSYDVKMKEKGDIPEGYSVSREKKERFSLILESASTNQTSMYLCASRQGNTGELFFGEGSRLTVL | – | – | no recognition | recognises
4400 TCR-J2 (TCR, V domains shown) Valpha: NSVTQMEGPVTLSEEAFLTINCTYTATGYPSLFWYVQYPGEGLQLLLKATKADDKGSNKGFEATYRKETTSFHLEKGSVQVSDSAVYFCALRLSGAGSYQLTFGKGTKLSVIP Vbeta: DVKVTQSSRYLVKRTGEKVFLECVQDMDHENMFWYRQDPGLGLRLIYFSYDVKMKEKGDIPEGYSVSREKKERFSLILESASTNQTSMYLCASSQGNTGELFFGEGSRLTVL | no recognition | recognises | – | –
4400 TCR-N12 (TCR, V domains shown) Valpha: QKEVEQDPGPLSVPEGAIVSLNCTYSNSAFQYFMWYRQYSRKGPELLMYTYSSGNKEDGRFTAQVDKSSKYISLFIRDSQPSDSATYLCAMSYSGGGADGLTFGKGTHLIIQP Vbeta: DVKVTQSSRYLVKRTGEKVFLECVQDMDHENMFWYRQDPGLGLRLIYFSYDVKMKEKGDIPEGYSVSREKKERFSLILESASTNQTSMYLCASSTGNTGELFFGEGSRLTVL | no recognition | recognises | – | –
4400 TCR-J (TCR, V domains shown) Valpha: QKEVEQDPGPLSVPEGAIVSLNCTYSNSAFQYFMWYRQYSRKGPELLMYTYSSGNKEDGRFTAQVDKSSKYISLFIRDSQPSDSATYLCAMSYSGGGADGLTFGKGTHLIIQP Vbeta: DVKVTQSSRYLVKRTGEKVFLECVQDMDHENMFWYRQDPGLGLRLIYFSYDVKMKEKGDIPEGYSVSREKKERFSLILESASTNQTSMYLCASSQGNTGELFFGEGSRLTVL | – | – | no recognition | recognises
4400 TCR-N (TCR, V domains shown) Valpha: GEDVEQSLFLSVREGDSSVINCTYTDSSSTYLYWYKQEPGAGLQLLTYIFSNMDMKQDQRLTVLLNKKDKHLSLRIADTQTGDSAIYFCAPGGYNKLIFGAGTRLAVHP Vbeta: DVKVTQSSRYLVKRTGEKVFLECVQDMDHENMFWYRQDPGLGLRLIYFSYDVKMKEKGDIPEGYSVSREKKERFSLILESASTNQTSMYLCASRIGNTGELFFGEGSRLTVL | – | – | no recognition | recognises
4400 TCR-A3 (TCR, V domains shown) Valpha: KTTQPNSMESNEEEPVHLPCNHSTISGTDYIHWYRQLPSQGPEYVIHGLTSNVNNRMASLAIAEDRKSSTLILHRATLRDAAVYYCILRAPSGTYKYIFGTGTRLKVLA Vbeta: DVKVTQSSRYLVKRTGEKVFLECVQDMDHENMFWYRQDPGLGLRLIYFSYDVKMKEKGDIPEGYSVSREKKERFSLILESASTNQTSMYLCASRQGNTGELFFGEGSRLTVL | no recognition | recognises | – | –
